Test results taken from the supplement of paper PMC9732359.
± gives the uncertainty stated by the source.

Experiment: protein stability index of a GFP-peptide fusion (yeast GPS) (PSI 1-4); higher = more stable; sorted into four equal gates, so the index is relative within each strain
How it was run: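 Tiled 17-residue yeast protein peptides were fused downstream of GFP in a plasmid that also expresses Cherry, and the pooled library was carried in yeast. Mid-log cultures in leucine-free medium were sorted into four equal gates by GFP/Cherry fluorescence ratio, and plasmids from each gate were PCR-amplified and Illumina-sequenced, with reads assigned to strains by barcodes. The protein stability index for each peptide was each gate's read frequency times its gate number, summed.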

Row | Sequence | protein stability index (doa10∆) | protein stability index (pdr5∆) | protein stability index (san1∆) | protein stability index (ubr1∆)
1 | YPLWVMAKQLIRLANES [CSN12] | 2.08 ± 0.07 | 1.41 ± 0.047 | 1.34 ± 0.17 | 1.4 ± 0.059
2 | EIYKQLNDRQEEISRLQ [YIL149C/MLP2] | 3.42 ± 0.08 | 3.57 ± 0.078 | 3.6 ± 0.041 | 3.38 ± 0.07
3 | KPYKQVKQIAPAELEGL [FAS2] | 2.36 ± 0.061 | 2.14 ± 0.055 | 2.47 ± 0.083 | 1.9 ± 0.053
4 | NDRKQTTVSNDLENSPL [SSN2] | 2.98 ± 0.079 | 3.11 ± 0.056 | 3.13 ± 0.041 | 3.08 ± 0.038
5 | TPDPSELAAKEEPAKEE [FAS2] | 2.718 ± 0.024 | 2.821 ± 0.024 | 2.693 ± 0.026 | 2.684 ± 0.019
6 | LSIDKVLKKPNRAMEYD [RET1] | 3.01 ± 0.18 | 2.56 ± 0.16 | 3.18 ± 0.2 | 1.98 ± 0.28
7 | LEDMVFPTEIVGKRVRY [RPS7B] | 1.57 ± 0.16 | 1.76 ± 0.088 | 2.5 ± 0.21 | 2.69 ± 0.055
8 | KTCAEVIGGNSLFHIVV [SMC3] | 3.05 ± 0.11 | 3.1 ± 0.1 | 2.96 ± 0.071 | 3.01 ± 0.089
9 | VNKYGLRADKLYEKLKQ [ISW2] | 1.52 ± 0.13 | 1.5 ± 0.11 | 1.6 ± 0.13 | 1.47 ± 0.15
10 | EVAVPDRVAKVLTYPEK [RPO31] | 2.97 ± 0.075 | 3.06 ± 0.1 | 2.88 ± 0.078 | 3.23 ± 0.078
11 | GSNVLKSGKTIVITSIT [RRP43] | 1.72 ± 0.063 | 2.57 ± 0.061 | 2.41 ± 0.067 | 2.33 ± 0.066
12 | KGYLQRGDDGESYAYLA [CDC53] | 3.17 ± 0.057 | 3.17 ± 0.055 | 3.21 ± 0.033 | 3.25 ± 0.044
13 | STNHPDYDVSKKASEIS [SRP14] |  | 3 ± 0.24 |  | 
14 | IIKQENFNSVNDANITS [SSN2] |  | 1.1 ± 0.11 |  | 
15 | RYFFWLQEKNSGNLPLN [RPN13] | 3.04 ± 0.16 | 3 ± 0.085 | 2.81 ± 0.063 | 2.87 ± 0.11
16 | VPVANQFINLAGYKKLG [QCR7] | 1.97 ± 0.14 | 2.5 ± 0.13 | 1.94 ± 0.17 | 2.48 ± 0.11
17 | VKLMKNITDYETHPDNS [BRR2] | 2.37 ± 0.054 | 2.42 ± 0.042 | 2.54 ± 0.049 | 2.09 ± 0.04
18 | LEVGRRFSPDEDFEHNN [MCD1] | 3.26 ± 0.15 | 3.45 ± 0.18 | 3.22 ± 0.16 | 3.45 ± 0.18
19 | KLSEIILNINNSTSKNT [SWI1] | 2.96 ± 0.067 | 2.92 ± 0.077 | 2.74 ± 0.1 | 3.01 ± 0.062
20 | YSNEPFNTNFDDEFGDL [SNF6] | 3.02 ± 0.1 | 3 ± 0.093 | 2.99 ± 0.059 | 3.06 ± 0.042
21 | TKHPSLKTLTHKQIHTT [POP7] | 2.21 ± 0.039 | 2.4 ± 0.04 | 2.21 ± 0.05 | 2.48 ± 0.04
22 | IPFQTLYRSIESGEFDF [YJL039C/NUP192] | 1.95 ± 0.061 | 2.27 ± 0.062 | 2.11 ± 0.1 | 1.99 ± 0.032
23 | QLDAYGEKKVGSNGELF [SWP82] | 3.28 ± 0.13 | 3.29 ± 0.089 | 3.62 ± 0.071 | 3.32 ± 0.12
24 | RRLPMTMFTAEQSELLK [SNF2] | 2.99 ± 0.073 | 3.08 ± 0.073 | 2.83 ± 0.053 | 2.91 ± 0.055
25 | NTTTYKSRPDRPKPVSP [SNF5] | 3.09 ± 0.045 | 3.12 ± 0.05 | 3 ± 0.047 | 2.97 ± 0.042
26 | LSEYLTKFQTTDRESYP [YCS4] |  | 3.28 ± 0.2 |  | 2.94 ± 0.14

Row | Sequence | protein stability index (doa10∆) | protein stability index (pdr5∆) | protein stability index (san1∆) | protein stability index (ubr1∆)
27 | PNRITLTDHRKETWLHE [SRB8] | 2.8 ± 0.082 | 3.03 ± 0.086 | 3.17 ± 0.07 | 3.22 ± 0.068
28 | ATPPLKRFKDMEYLSGG [SMC1] | 2.93 ± 0.13 | 2.89 ± 0.09 | 2.99 ± 0.047 | 3.01 ± 0.063
29 | IEDRDFLVRYACEPTAE [SIR3] | 2.28 ± 0.064 | 2.83 ± 0.067 | 2.53 ± 0.074 | 3.08 ± 0.069
30 | QFLEQGLSIHPTQITQY [SRP68] | 2.17 ± 0.058 | 2.22 ± 0.076 | 2.27 ± 0.062 | 2.17 ± 0.067
31 | ANRSRFNNEAPPQTRKF [SMB1] | 3.05 ± 0.083 | 3.03 ± 0.049 | 2.87 ± 0.069 | 3.26 ± 0.047
32 | GNDNLIKAPTVAADGKL [YLR335W/NUP2] | 2.46 ± 0.097 | 2.93 ± 0.09 | 2.56 ± 0.077 | 2.95 ± 0.072
33 | LRELDVELIESKINELS [SMC4] | 3.37 ± 0.096 | 3.47 ± 0.077 | 3.38 ± 0.073 | 3.35 ± 0.047
34 | LKKQLHVSHEAMREVND [YIL149C/MLP2] | 2.77 ± 0.066 | 2.24 ± 0.058 | 2.91 ± 0.07 | 2.85 ± 0.076
35 | AKSTVETFISSMTATAD [RIP1] | 1.89 ± 0.073 | 2.13 ± 0.077 | 2.93 ± 0.061 | 1.48 ± 0.05
36 | QTGTRRNSKLLNTKSIQ [MCD1] | 3.29 ± 0.2 | 3.19 ± 0.18 | 3.05 ± 0.085 | 3.2 ± 0.072
37 | LIQDLLHRLTPKNVKGE [RPN1] | 3.44 ± 0.25 | 3.27 ± 0.11 | 3.51 ± 0.21 | 3.01 ± 0.14
38 | ANLEDIIFEIEKPLVVP [RRP6] | 2 ± 0.085 | 2.79 ± 0.094 | 2.62 ± 0.08 | 2.03 ± 0.11
39 | TVLCTPTGGKAKLSEGT [RPS27B] | 3.25 ± 0.11 | 3.18 ± 0.079 | 3.15 ± 0.045 | 3.15 ± 0.1
40 | LFEQLQTVSNKEDAKAT [SRP54] | 3.41 ± 0.14 | 3.04 ± 0.1 | 3.18 ± 0.054 | 3.18 ± 0.059
41 | TFTIQLLKLTKVFIRES [YML103C/NUP188] | 2.17 ± 0.063 | 3.12 ± 0.08 | 2.46 ± 0.086 | 2.69 ± 0.12
42 | KSIINSQRPGARILARS [ITC1] |  | 2.18 ± 0.16 | 2.45 ± 0.22 | 2.63 ± 0.11
43 | QVFSVKDSTAGKKVFET [YJR042W/NUP85] |  |  | 3.09 ± 0.2 | 
44 | GEILLPDIADIPRTFRT [SNF5] | 2.82 ± 0.14 | 3.18 ± 0.12 | 3.19 ± 0.12 | 3.05 ± 0.1
45 | REKVRKLSQYVQEMALG [FAS2] | 2.86 ± 0.11 | 3.41 ± 0.11 | 3.15 ± 0.071 | 3.24 ± 0.067
46 | PESQGQHEQQKQQEQLE [YMR153W/NUP53] | 3.4 ± 0.083 | 3.37 ± 0.066 | 3.24 ± 0.06 | 3.26 ± 0.072
47 | AQKNTQSYGGRPYGVGL [PRE5] | 3.38 ± 0.084 | 3.43 ± 0.075 | 3.23 ± 0.076 | 3.26 ± 0.058
48 | VVMAMYNPKMIDDRDYV [RET1] | 3.36 ± 0.27 |  |  | 3.45 ± 0.27
49 | LNAKYQSLGLDDLQKFN [ISW2] | 3.03 ± 0.066 | 3 ± 0.061 | 2.74 ± 0.049 | 2.7 ± 0.044
50 | NEEATPIPSSETKADGI [RRP6] | 3.04 ± 0.053 | 3.18 ± 0.058 | 3.04 ± 0.049 | 3.01 ± 0.04
51 | LRNKLIESNKLAGVLYE [RRP6] | 2.72 ± 0.16 | 3.04 ± 0.21 | 2.79 ± 0.28 | 2.73 ± 0.18
52 | GGAYTVSTAAAATVRST [RPL43A] | 2.1 ± 0.053 | 2.25 ± 0.049 | 1.95 ± 0.069 | 2.14 ± 0.048
